Results as given in PMC12738837, “Structure of Trypanosoma peroxisomal import complex unveils conformational heterogeneity” (Nature Communications, 2025).
Positions count from the first letter of the chain named. “And” between values parts separate entries of the source, which are not always exact repeats. Equal entries are not always repeated.

T1: Pex5_(eTPR)(P490R) (Trypanosoma cruzi, UniProt Q4DPQ9 316-668, P490R)
T1 construct: source: E. coli BL21 (DE3), purified as wild type (Ni-NTA, SEC)
T1 sequence: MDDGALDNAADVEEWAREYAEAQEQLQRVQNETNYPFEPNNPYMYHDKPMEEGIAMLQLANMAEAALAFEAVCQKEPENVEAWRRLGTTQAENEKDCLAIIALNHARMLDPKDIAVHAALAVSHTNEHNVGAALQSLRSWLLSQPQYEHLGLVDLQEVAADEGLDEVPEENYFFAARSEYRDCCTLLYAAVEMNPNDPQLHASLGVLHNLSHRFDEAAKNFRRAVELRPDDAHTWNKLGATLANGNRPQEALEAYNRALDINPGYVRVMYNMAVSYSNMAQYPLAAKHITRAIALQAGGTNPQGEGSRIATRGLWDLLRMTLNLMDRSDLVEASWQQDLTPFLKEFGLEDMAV

T2: Pex5_(eTPR)(R625A, D629A) (Trypanosoma cruzi, UniProt Q4DPQ9 316-668, R625A | D629A)
T2 construct: source: E. coli BL21 (DE3), purified as wild type (Ni-NTA, SEC)
T2 sequence: T1 sequence with R177P, R312A, D316A

B1: full length Pex5 (residues 1–666) (receptor, Trypanosoma cruzi, UniProt Q4DPQ9 1-668, looked up)
chain: MDCSTGAAIGQQFAKDAFHMHGGVGVGPTGNPEHDVLMNEMMMVQTPTGPAGEWTHQFAAYQGKQQQQHPQELAMRHQQNDALMLRQQQEMEEAFCTLCAAHPHSHAHSHAHSHQPQGLVGPAMMGPQIMPPMMFGPGSGGFMMGTPPMMPYASMKFAGDAAMAAANNTTMTQGATATSTTSVQQEQQQQQSSDNGWVEKLRDAEWAQDYSDAQVFTLEGQSEQTMEEHAKNSEFYQFMDKIRSKELLIDEETGQLVQGPGPDPDAPEDAEYLKEWAAAEGLNMPPGFFEHMMQRPQGNNEQAEGRLFDGSNDALMDDGALDNAADVEEWAREYAEAQEQLQRVQNETNYPFEPNNPYMYHDKPMEEGIAMLQLANMAEAALAFEAVCQKEPENVEAWRRLGTTQAENEKDCLAIIALNHARMLDPKDIAVHAALAVSHTNEHNVGAALQSLRSWLLSQPQYEHLGLVDLQEVAADEGLDEVPEENYFFAAPSEYRDCCTLLYAAVEMNPNDPQLHASLGVLHNLSHRFDEAAKNFRRAVELRPDDAHTWNKLGATLANGNRPQEALEAYNRALDINPGYVRVMYNMAVSYSNMAQYPLAAKHITRAIALQAGGTNPQGEGSRIATRGLWDLLRMTLNLMDRSDLVEASWQQDLTPFLKEFGLEDMAV
notes: Pex5, Trypanosoma cruzi, full length, residues 1-666, GenBank PBJ69826.1; Contains three Wxxx(F/Y) motifs; source: E. coli BL21 (DE3), purified (Ni-NTA, SEC)
B2: glycosomal malate dehydrogenase (MDH, residues 1–323) (enzyme, Trypanosoma cruzi, UniProt Q4DRD8 1-323, looked up)
chain: MVNVAVIGAAGGIGQSLSLLLLRELPFGSTLSLYDVVGAPGVAADLSHIDRAGITVKHAAGKLPPVPRDPALTELAEGVDVFVIVAGVPRKPGMTRDDLFNVNAGIVMDLVLTCASVSPNACFCIVTNPVNSTTPIAAQTLRKIGVYNKNKLLGVSLLDGLRATRFINNARHPLVVPYVPVVGGHSDVTIVPLYSQIPGPLPDESTLKEIRKRVQVAGTEVVKAKAGRGSATLSMAEAGARFTMHVVKALMGLDTPMVYAYVDTDGEHECPFLAMPVVLGKNGIERRLPIGPITTVEKEMLEEAVGVVKKNIAKGETFARSKL
notes: glycosomal malate dehydrogenase (MDH), Trypanosoma cruzi, residues 1-323, UniProt Q4DRD8; Tetramer (two dimers related by D2 symmetry) by cryo-EM; also called cargo; MDH tetramer; source: E. coli BL21 (DE3), purified (Ni-NTA, SEC)

What was measured:
[1] = target: 6-FAM labeled PTS1 peptide; test: fluorescence polarisation
[2] = target: B2; test: cryo-EM structure; ternary complex: purified MDH (tetramer), full-length Pex5 and Pex14NTD mixed at 1:4:12, overnight at 4 °C, separated on Superose6 10/300, vitrified at ~0.75 mg/mL; no cross-linking; MDH alone solved from the same dataset; settings: both partners purified
[3] = target: Pex5_(eTPR) (residues 314–666), truncated Pex5 containing an extended TPR domain with a single Wxxx(F/Y) motif (Trypanosoma cruzi, UniProt Q4DPQ9 316-668); test: ITC; Pex5_(eTPR) (250 μM) injected into MDH (25 μM) in the cell; 100 mM Hepes, 150 mM NaCl, 2 mM β-mercaptoethanol, pH 7.5; 25 °C; settings: both partners purified
Pex5_(eTPR)(P490R) = target: T1, Pex5_(eTPR)(P490R); test: as above; settings: both partners purified
[4] = target: T2, Pex5_(eTPR)(R625A, D629A); test: as above; settings: both partners purified
[5] = target: the molecule itself; test: cryo-EM structure; ternary complex: purified MDH (tetramer), full-length Pex5 and Pex14NTD mixed at 1:4:12, overnight at 4 °C, separated on Superose6 10/300, vitrified at ~0.75 mg/mL; no cross-linking; MDH alone solved from the same dataset

For B1, which Kd [1] is on record?
Its Kd is 88 nM.

What about the “stoichiometry N” value [2] of the same binder?
Its value is 1 Pex5 per MDH tetramer and 2 Pex5 per MDH tetramer.

For B2, which Kd [3] is on record?
Its Kd is 435 ± 80 nM.

And the Kd (Pex5_(eTPR)(P490R))?
Its Kd is 1390 ± 226 nM.

What about the Kd [4] of the same binder?
The Kd was 453 ± 64 nM.

What about the “stoichiometry N” value [5] of the same binder?
Its value is 4.
